Results from US20250289873A1 (published 2025).

B1: ATX-P-568 (antibody, V domains shown)
VH: EVQLVESGGGLVQPGGSLRLSCAASGFPFSSYVMSWVRQAPGKGLEWVSVISVSGGSTFYADSVRGRFTISRDNSKNTLYLQVYSLRAEDTAVYYCAKDGLAVAGFDHWGQGTLVTVSS
VL: DIQMTQSPSTLSASVGDRVTITCRASQSISTWLAWYQQKPGKAPKLLIHKASGLESGVPSRFSGSGSGTEFTLTISSLQPDDFATYYCQQYNSFSLIFGGGTRVEIKR
B2: ATX-P-609 (antibody, V domains shown)
VH: QVQLQESGPGLVKPSGTLSLTCAVSGGSISSSNWWSWVRQPPGKGLEWIGEIYHSGSTNYNPSLKSRVTISVDKSKNQFSLKLRSVTAADTAVYYCARDQLSSGPTDAFDIWGQGTMVTVSS
VL: EIVMTQSPATLSVSPGERATLSCRASQSVSSNLAWYQQKPGQAPRLLIYGASTRATGIPVRFSGSGSGTQFTLTISSLQSEDFAVYYCQQYDNWRTFGQGTKLEIKR
B3: ATX-P-608 (antibody, V domains shown)
VH: QVQLQESGPGLVKPSGTLSLTCAVSGGSISSSNWWSWVRQSPGKGLEWIGEIYHTGSTNKKPSLKSRVIISVDKSKNQFSLKLISVNAADTAIYYCARDREGGTTEAFDIWGQGTMVTVSS
VL: EIVMTQSPATLSVSPGERATLSCRASQSVSSNLAWYQQKPGQAPRLLIYGASTRATGIPVRFSGSGSGTQFTLTISSLQSEDFAVYYCQQYDNWRTFGQGTRLEIKR
B4: ATX-P-572 (antibody, V domains shown)
VH: QVQLQQSGPGLVKPSQTLSLTCAISGDSVSSNSAAWNWIRQSPSRGLEWLGMTYYRSKWYSVFAVSVKSRITINTDTSKNQFSLQLNSVTPEDTAVYYCAREGGIVGATPFDYWGQGTLVTVSS
VL: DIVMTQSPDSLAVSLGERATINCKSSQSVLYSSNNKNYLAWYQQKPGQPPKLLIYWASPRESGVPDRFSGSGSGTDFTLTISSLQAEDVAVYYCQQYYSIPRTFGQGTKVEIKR
B5: ATX-P-601 (antibody, V domains shown)
VH: QVQLVQSGAEVKKPGASVKVSCKASGYTFTSYYMHWVRQAPGQGLEWMGIINPSGGSTNYAQKFQGRLTMTRDTSTNTVYMELSSLRSEDTAVYYCATDQSGGMDVWGKGTTVTVSS
VL: DIQMTQSPSSLSASVGDRVTITCRASQSINIYLNWYQQKPEKDPKLLIYAASSLQSGVPSRFSGSGSGTDFTLTISNLQPEDFATYYCQQSYSTPITFGQGTRLEIKR
B6: ATX-P-607 (antibody, V domains shown)
VH: QVQLVQSGAEVKKPGASVKVSCKASGYTFTSYYMHWVRQAPGQGLEWMGIINPSGGSTSYAQKFQGRVTMTRDTSTNTVYMELSSLRSEDTAVYYCARDPEYSSAFDIWGQGTMVTVSS
VL: DIQMTQSPSSLSASVGDRGTITCRASQSIRSYLNWYQQKPGKAPKLLIYAASSLQSGVPSRFSGSGSGTDFTLTISSLQPEDFATYYCQQSYRTPVTFGPGTKVDIKR
B7: ATX-P-571 (antibody, V domains shown)
VH: QVQLQESGPGLVKPSGTLSLTCAVSGGSISSRNWWSWVRQPPGKGLEWIGEIYHGGTTNYNPSLKSRVTISVDKSKNQFSLKLSSVTAADTAVYYCARGGLRLGELSPNAFDIWGQGTMVTVSS
VL: DIQMTQSPSSLSASVGDRVTITCRASQSISSYLNWYQQKPGKAPKVLIYAASSLQSGIPSRFSGSGSGTDFTLTISSLQPEDFATYYCQETYSVPLTFGGGTKVEIKR
B8: ATX-P-597 (antibody, V domains shown)
VH: QVQLVQSGAEVKKPGASVKVSCKASGYTFTNYYMQWVRQAPGQGLEWLGIIDPSGGSTTYAQKFQGRVTMTRDTSTSTVHMELRSLRSEDTAVYYCARDEGTDRPGWGYWGQGTLVTVSS
VL: DIQMTQSPSSLSASIGDRVTITCRASQSISSYLDWYQRKSGKAPKLLIYAASSLQSGVPSRFSGSGSGTDFTLTISSLQPEDFATYYCQQSYSTPLTFGGGTKVDIKR
B9: ATX-P-579 (antibody, V domains shown)
VH: QVQLQESGPGLVKPSGTLSLTCAVSGASISTSNWWTWVRQPPGKGLEWIGEIYHDGSTNYSPSLQSRVTISVDKSKNQFSLTLTSVTAADTAIYYCGDFYIDVWGNGTTVTVSS
VL: DIQMTQSPSSLSASVGDRVTITCRASQGIRKDLGWYQQKPGKAPKRLIYTASTLQSGVPSRFSGSGSGTEFTLTISSLQPEDFATYYCLQYNNYPFTFGPGTKVDIKR
B10: ATX-P-580 (antibody, V domains shown)
VH: QVQLQESGPGLVKPSGTLSLTCAVSGGSISTSDWWTWVRQPPGKGLEWIGEIYHSGSTNYNPSLKSRVTISVDKSKNQFSLKLSSVTAADTAVYYCADWYFDLWGRGTLVTVSS
VL: DIQMTQSPSSLSASVGDRVTITCRASQGIRNDLGWYQQKPGKAPKRLIYAASSLQSGVPSRFSGSGSGTEFTLAISSLQPEDFATYYCLHFNSYPFTFGPGTKVDIKR
B11: ATX-P-583 (antibody, V domains shown)
VH: QVQLVQSGAEVKKPGASVKVSCKASGYTFTTYGISWVRQAPGQGLEWMGWISAYSGNTHYAQSLQDRVTMTTDTSTSTAYMEVRSLRSDDTAVYYCAKDEGYCSSTGCLNLFDPWGQGTLVTVSS
VL: DIQMTQSPSSLSASVGDRVTITCRASQNIGSYLNWYQQKPGNAPKLLIYATSTLQSGVPSRFSGSGSGTDFTLIISSLHPEDFTVYYCQQSFIIPFTFGPGTKVDIKR
B12: ATX-P-565 (antibody, V domains shown)
VH: QVQLVESGGGVVQPGRSLRLSCAASGFTFNTYGIHWVRQAPGKGLEWVAVIWHDGSSKNYVDSVTGRFTISRDNSKNTVYLQMNSLRAEDTAVYYCARRGNWNYGFYYYYMDVWGKGTTVTVSS
VL: DIVMTQSPLSLPVTPGEPASISCRSSQRLLHSSGYNYLDWYLQKPGQSPQLLIYLGSSRASGVPDRFSGSGSGTDFTLKISRVEAEDVGVYYCMQGLQTPPTFGQGTKVEIKR
B13: ATX-P-578 (antibody, V domains shown)
VH: EVQLVESGGGLVQPGGSLRLSCAASGFTFSRYSMNWVRQAPGKGLEWVSYISSSSSTIFHADSVKGRFTISRDNAKNSLYLQMNSLRDEDTAVYYCARGNWNYYYMDVWGKGTTVTVSS
VL: DIQMTQSPSTLSASVGDRVTISCRASQSVNSWLAWYQQKPGKAPKLLIYKASNLEGGVPSSFSGSGSGTEFTLTISSLQPDDFATYYCQQYDTSWTFGQGTKVEIKR
B14: ATX-P-588 (antibody, V domains shown)
VH: EVQLVESGGGLVQPGRSLRLSCAASGFTFEDYAMHWVRQAPGKGLEWVSGISWNSGSIGYADSVKGRFTISRDNAKKSLYLQMNSLRAEDTALYYCTKDRDDGYNYAGVFDYWGQGTLVTVSS
VL: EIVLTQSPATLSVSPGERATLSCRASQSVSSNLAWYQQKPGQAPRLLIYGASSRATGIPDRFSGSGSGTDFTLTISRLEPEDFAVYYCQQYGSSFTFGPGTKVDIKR
B15: ATX-P-570 (antibody, V domains shown)
VH: QVQLQESGPGLVKPSETMSLTCTVSGGSFTGYYWSWIRQPPGKGLEWIGYVHYSGGTKSNPSLKSRVTISVDTSKNQFSLKLSSVTAADTAVYYCARERYEWNSYFDYWGQGTLVTVSS
VL: not shown
B16: ATX-P-602 (antibody, V domains shown)
VH: not shown
VL: EIVLTQSPGTLSLSPGERATLSCRASQSVSSSYLAWYQQKPGQAPRLLIYGASSRATGIPDRFSGSGSGTQFTLTISSLQSEDFAVYYCQQYGSSPWTFGQGTKVDIKR
B17: ATX-P-574 (antibody, V domains shown)
VH: EVQLVESGGGLVQRGGSLRLSCVASGFTFSSYAMSWVRQAPGKGLEWVSVISGSGGTTYYADSVKGRFTISRDDSKKTLYLQMNSLRAEDTAVYYCAKRGDYGDYMDVWGKGTTVTVSS
VL: DIQMTQSPSSVSASVGDRVTITCRASQGITTWLAWYQQKPGKAPKLLIFGASSLESGVPSRFSGSGSGTDFTLTISSLQPEDFATYYCQQANSFPWTFGQGTKVEIKR
B18: ATX-P-573 (antibody, V domains shown)
VH: QVQLQQSGPGLVKPSQTLSLTCAISGDSVSSNSAAWNWIRQSPSRGLEWLGRTYYRSKLYSDYAVSVKSRITINPDTSRNQFSLQLNSVTPEDTAVYYCAREGGYTYGYDYWGQGTLVTVSS
VL: DIQMTQSPSSVSASVGDRVTITCRASQGISSWLAWYQQKPGKAPKVLIYAASSLQSGVPSRFSGSGSGTDFTLTISSLQPEDFATYYCQQANSFPPTFGPGTKVDIKR
B19: ATX-P-581 (antibody, V domains shown)
VH: QVQLQQSGPGLVKPSQTLSLTCAISGDSVSSNNAAWNWIRQSPSRGLEWLGRTYYRSKWYNAYAVSVKSRIIINPDTSRNQFSLQLNSVTPEDTAVYYCAREGGYIYGLDQWGQGTLVTVSS
VL: DIQMTQSPSSVSASVGDRVTITCRASQGVNNWLAWYQQKPGKAPKLLIHAASSLLSGVPSRFSGSGSGTDFTLTITSLQPEDFATYYCQQANSFPITFGQGTRLEIKR
B20: ATX-P-576 (antibody, V domains shown)
VH: EVQLVESGGGLVQPGRSLRLSCTASGFTFDDYEMHWVRQAPGKGLEWVSDISRNSGRIGYADSVKGRFTISRDNAKNSLYLQMNSLRAEDTALYYCAKDIWGSGYFDYWGQGILVTVSS
VL: DIQMTQSPSSVSASVGDRVTITCRTSQGIRNWLAWYQQKPGKAPKLLIYAASSLQTGGPSRFSGSGSGTDFTLTISSLQPEDFATYYCQQANSFPYTFGQGTKLEIKR
B21: ATX-P-562 (antibody, V domains shown)
VH: QVQLQQSGPGLVKSSQTLSLTCAISGDTVSSNSAAWNWIRQSPSRGLEWLGRTFYRSRWSAAYAASVSSRITINPDTSKNQFSLQLTSVTPADTAVYYCAREGVGSSTGFDYWGQGTLVTVSS
VL: DIQMTQSPSSVSASIGDRVTITCRASKGISIWLAWYQQKPGKAPKVLISAASSLQSGAPSRFSGSGSGTDFTLTISSLQPEDFATYYCQQANSFPPTFGQGTKVEIKR
B22: ATX-P-561 (antibody, V domains shown)
VH: QVQLQQSGPGLVKPSQTLSLTCAISGDSVSSNSAAWNWIRQSPSRGLEWLGRTYYRSKWYNGYAVSMKSRITINPDTSKNQFSLQLNSVTPEDTAMYYCAREGVGATTGFDYWGQGTLVTVSS
VL: DIQMTQSPSSLSASVGDRVTITCRASQGISSWLTWYQQKPGKAPKLLIYAASSLQGGVPSRFSGSGSGTDFTLTISSLQPEDFATYYCQQANSFPPTFGQGTKVEIKR
B23: ATX-P-560 (antibody, V domains shown)
VH: QVQLQQSGPGLVKPSQTLSLTCAISGDSVSSNTAAWNWIRQSPSRGLEWLGRTYYRSKWYNDYAVSVKSRITINPDTSKNQFSLQLSSVTPQDTAIYYCASDNWNNGGPGFDPWGQGTLVTVSS
VL: DIQMTQSPSSVSTSVGDRVTITCRASQGISSWLAWYQQKPGKAPKLLISAASSLQSGVPSRFSGSGSGTDFTLTISTLQPEDFASYYCQQANSFPPTFGQGTRVEIKR

Biological target: hCFHR4
Assay: SPR kinetics

Point of comparison: B5, Kd 18.2 nM. Against it:
- B1 — 11-fold lower, 1.62 nM
- B2 — 3.7-fold lower, 4.98 nM
- B3 — 52-fold lower, 0.347 nM
- B4 — 12-fold lower, 1.5 nM
- B6 — 2.3-fold lower, 7.97 nM
- B7 — 1.5-fold higher, 27.4 nM
- B8 — 110-fold lower, 0.168 nM
- B9 — 12-fold lower, 1.46 nM
- B10 — 1.8-fold higher, 31.9 nM
- B11 — 57-fold lower, 0.317 nM
- B12 — 2.6-fold lower, 6.9 nM
- B13 — within 1.5-fold, 25 nM
- B14 — 2.6-fold lower, 6.87 nM
- B15 — 1.7-fold lower, 10.5 nM
- B16 — 1.8-fold higher, 33 nM
- B17 — 3.1-fold lower, 5.9 nM
- B18 — within 1.5-fold, 23 nM
- B19 — 1.9-fold lower, 9.65 nM
- B20 — 20-fold lower, 0.9 nM
- B21 — 37-fold lower, 0.487 nM
- B22 — 1.8-fold higher, 31.9 nM
- B23 — 8.6-fold lower, 2.12 nM
